From the supplement of paper PMC10567573

B1: SPOPL (parent)
chain: PDDKLTLFCEVSVVQDSVNISGHT

Variants of: B1
Experiment: protein stability index of a GFP-peptide fusion (GPS, HEK-293T) (PSI 1-6); higher = more stable
Details: c terminus: a fixed tail appended
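Note: lentivirally expressed fusions sorted by FACS into six bins by GFP to DsRed ratio, PSI derived from sequencing read proportions per bin multiplied by bin number.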

Row | Variant | protein stability index
1 | PDDKLTLFCEVSVTQDSVNISGHT [V14T] | 1.86
2 | PDDKLTLFCEVSVGQDSVNISGHT [V14G] | 2.54
3 | PDDKLTLFCEVSVCQDSVNISGHT [V14C] | 1.66
4 | PDDKLTLFCEVSVRQDSVNISGHT [V14R] | 2.74
5 | PDDKLTLFCEVSVYQDSVNISGHT [V14Y] | 1.67
6 | PDDKLTLFCEVSVFQDSVNISGHT [V14F] | 2.08
7 | PDDKLTLFCEVSVHQDSVNISGHT [V14H] | 3.19
8 | PDDKLTLFCEVSVDQDSVNISGHT [V14D] | 3.07
9 | PDDKLTLFCEVSVKQDSVNISGHT [V14K] | 2.7
10 | PDDKLTLFCEVSVEQDSVNISGHT [V14E] | 3.34
11 | PDDKLTLFCEVSVIQDSVNISGHT [V14I] | 2.56
12 | PDDKLTLFCEVSVSQDSVNISGHT [V14S] | 2.07
13 | PDDKLTLFCEVSVMQDSVNISGHT [V14M] | 2.01
14 | PDDKLTLFCEVSVNQDSVNISGHT [V14N] | 2.62
15 | PDDKLTLFCEVSVWQDSVNISGHT [V14W] | 1.81
16 | PDDKLTLFCEVSVQQDSVNISGHT [V14Q] | 2.7
17 | PDDKLTLFCEVSVAQDSVNISGHT [V14A] | 2.63
18 | PDDKLTLFCEVSVLQDSVNISGHT [V14L] | 1.71
19 | PDDKLTLFCEVSVPQDSVNISGHT [V14P] | 3.59
20 | PDDKLTLFCEVKVVQDSVNISGHT [S12K] | 2
21 | PDDKLTLFCEVVVVQDSVNISGHT [S12V] | 2.53
22 | PDDKLTLFCEVNVVQDSVNISGHT [S12N] | 2.79
23 | PDDKLTLFCEVHVVQDSVNISGHT [S12H] | 1.71
24 | PDDKLTLFCEVFVVQDSVNISGHT [S12F] | 2.22

Row | Variant | protein stability index
25 | PDDKLTLFCEVIVVQDSVNISGHT [S12I] | 2.11
26 | PDDKLTLFCEVTVVQDSVNISGHT [S12T] | 1.71
27 | PDDKLTLFCEVAVVQDSVNISGHT [S12A] | 3.08
28 | PDDKLTLFCEVWVVQDSVNISGHT [S12W] | 1.98
29 | PDDKLTLFCEVRVVQDSVNISGHT [S12R] | 2.32
30 | PDDKLTLFCEVMVVQDSVNISGHT [S12M] | 1.79
31 | PDDKLTLFCEVDVVQDSVNISGHT [S12D] | 3.66
32 | PDDKLTLFCEVEVVQDSVNISGHT [S12E] | 2.23
33 | PDDKLTLFCEVPVVQDSVNISGHT [S12P] | 3.81
34 | PDDKLTLFCEVQVVQDSVNISGHT [S12Q] | 1.73
35 | PDDKLTLFCEVGVVQDSVNISGHT [S12G] | 1.94
36 | PDDKLTLFCEVCVVQDSVNISGHT [S12C] | 2.73
37 | PDDKLTLFCEVLVVQDSVNISGHT [S12L] | 2.1
38 | PDDKLTYFCEVSVVQDSVNISGHT [L7Y] | 2.72
39 | PDDKLTLFCEVSVVDDSVNISGHT [Q15D] | 3.19
40 | PDDKLTLFCEVSVVRDSVNISGHT [Q15R] | 1.44
41 | PDDKLTLFCEVSVVGDSVNISGHT [Q15G] | 1.97
42 | PDDKLTLFCEVSVVPDSVNISGHT [Q15P] | 3.1
43 | PDDKLTLFCEVSVVTDSVNISGHT [Q15T] | 2.31
44 | PDDKLTLFCEVSVVNDSVNISGHT [Q15N] | 1.97
45 | PDDKLTLFCEVSVVHDSVNISGHT [Q15H] | 1.28
46 | PDDKLTLFCEVSVVKDSVNISGHT [Q15K] | 2.12
47 | PDDKLTLFCEVSVVFDSVNISGHT [Q15F] | 3.28
48 | PDDKLTLFCEVSVVADSVNISGHT [Q15A] | 1.71

Row | Variant | protein stability index
49 | PDDKLTLFCEVSVVSDSVNISGHT [Q15S] | 2.44
50 | PDDKLTLFCEVSVVEDSVNISGHT [Q15E] | 3.4
51 | PDDKLTLFSEVSVVQDSVNISGHT [C9S] | 4.52
52 | PDDKLTLFHEVSVVQDSVNISGHT [C9H] | 4.09
53 | PDDKLTLFMEVSVVQDSVNISGHT [C9M] | 2.13
54 | PDDKLTLFEEVSVVQDSVNISGHT [C9E] | 4.47
55 | PDDKLTLFDEVSVVQDSVNISGHT [C9D] | 4.71
56 | PDDKLTLFGEVSVVQDSVNISGHT [C9G] | 4.42
57 | PDDKLTLFVEVSVVQDSVNISGHT [C9V] | 3.85
58 | PDDKLTLFFEVSVVQDSVNISGHT [C9F] | 2.35
59 | PDDKLTLFYEVSVVQDSVNISGHT [C9Y] | 2.07
60 | PDDKLTLFPEVSVVQDSVNISGHT [C9P] | 4.91
61 | PDDKLTLFNEVSVVQDSVNISGHT [C9N] | 4.34
62 | PDDKLTLFQEVSVVQDSVNISGHT [C9Q] | 4.21
63 | PDDKLTLFKEVSVVQDSVNISGHT [C9K] | 4.34
64 | PDDKLTLFIEVSVVQDSVNISGHT [C9I] | 3.05
65 | PDDKLTLFREVSVVQDSVNISGHT [C9R] | 4.54
66 | PDDKLTLFWEVSVVQDSVNISGHT [C9W] | 2.62
67 | PDDKLTLFLEVSVVQDSVNISGHT [C9L] | 3.25
68 | PDDKLTLFTEVSVVQDSVNISGHT [C9T] | 3.83
69 | PDDKLTLFAEVSVVQDSVNISGHT [C9A] | 3.47
70 | PDDKLTLFCEVSVVQDSANISGHT [V18A] | 2.83
71 | PDDKLTLFCEVSVVQDSFNISGHT [V18F] | 1.73
72 | PDDKLTLFCEVSVVQDSINISGHT [V18I] | 2.09

Row | Variant | protein stability index
73 | PDDKLTLFCEVSVVQDSQNISGHT [V18Q] | 3.27
74 | PDDKLTLFCEVSVVQDSMNISGHT [V18M] | 2.05
75 | PDDKLTLFCEVSVVQDSKNISGHT [V18K] | 2.69
76 | PDDKLTLFCEVSVVQDSENISGHT [V18E] | 3.04
77 | PDDKLTLFCEVSVVQDSNNISGHT [V18N] | 2.99
78 | PDDKLTLFCEVSVVQDSGNISGHT [V18G] | 2.83
79 | PDDKLTLFCEVSVVQDSHNISGHT [V18H] | 2.6
80 | PDDKLTLFCEVSVVQDSDNISGHT [V18D] | 3.67
81 | PDDKLTLFCEVSVVQDSLNISGHT [V18L] | 1.57
82 | PDDKLTLFCEVSVVQDSCNISGHT [V18C] | 1.85
83 | PDDKLTLFCEVSVVQDSPNISGHT [V18P] | 2.7
84 | PDDKLTLPCEVSVVQDSVNISGHT [F8P] | 4.79
85 | PDDKLTLWCEVSVVQDSVNISGHT [F8W] | 1.62
86 | PDDKLTLHCEVSVVQDSVNISGHT [F8H] | 3.64
87 | PDDKLTLKCEVSVVQDSVNISGHT [F8K] | 3.48
88 | PDDKLTLACEVSVVQDSVNISGHT [F8A] | 3.65
89 | PDDKLTLRCEVSVVQDSVNISGHT [F8R] | 2.77
90 | PDDKLTLTCEVSVVQDSVNISGHT [F8T] | 2.9
91 | PDDKLTLNCEVSVVQDSVNISGHT [F8N] | 4.86
92 | PDDKLTLQCEVSVVQDSVNISGHT [F8Q] | 4.5
93 | PDDKLTLCCEVSVVQDSVNISGHT [F8C] | 3.22
94 | PDDKLTLDCEVSVVQDSVNISGHT [F8D] | 4.94
